T1: nuclear SREBP-2 (nSREBP-2) (rat, UniProt Q3T1I5 1-476)
T1 sequence: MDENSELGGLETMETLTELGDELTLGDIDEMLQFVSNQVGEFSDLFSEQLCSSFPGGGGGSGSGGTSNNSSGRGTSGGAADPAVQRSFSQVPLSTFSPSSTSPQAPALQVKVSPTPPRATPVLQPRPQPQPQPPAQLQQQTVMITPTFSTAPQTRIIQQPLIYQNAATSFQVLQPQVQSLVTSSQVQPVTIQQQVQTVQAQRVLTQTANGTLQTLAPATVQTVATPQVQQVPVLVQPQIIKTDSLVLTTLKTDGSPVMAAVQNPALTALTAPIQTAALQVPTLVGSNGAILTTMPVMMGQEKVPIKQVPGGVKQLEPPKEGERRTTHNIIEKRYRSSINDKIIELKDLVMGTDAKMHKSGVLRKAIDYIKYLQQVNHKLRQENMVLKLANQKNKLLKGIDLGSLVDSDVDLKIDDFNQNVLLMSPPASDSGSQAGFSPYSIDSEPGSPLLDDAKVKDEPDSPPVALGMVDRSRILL

T2: nuclear SREBP-1c (nSREBP-1c) (rat, UniProt P56720-1 1-456)
T2 sequence: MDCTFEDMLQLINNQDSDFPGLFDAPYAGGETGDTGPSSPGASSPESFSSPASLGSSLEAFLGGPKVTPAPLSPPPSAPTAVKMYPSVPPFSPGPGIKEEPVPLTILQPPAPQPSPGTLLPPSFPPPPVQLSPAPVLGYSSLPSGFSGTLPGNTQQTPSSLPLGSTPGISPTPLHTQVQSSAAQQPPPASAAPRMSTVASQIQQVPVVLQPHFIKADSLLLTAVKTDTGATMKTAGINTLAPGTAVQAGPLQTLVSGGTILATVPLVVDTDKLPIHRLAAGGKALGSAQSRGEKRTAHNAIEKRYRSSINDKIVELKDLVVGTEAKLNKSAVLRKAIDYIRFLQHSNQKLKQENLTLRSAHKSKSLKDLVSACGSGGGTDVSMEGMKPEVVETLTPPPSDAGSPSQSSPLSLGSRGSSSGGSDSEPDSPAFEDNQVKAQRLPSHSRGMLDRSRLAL

B1: rTPO II (dsDNA)
DNA 1: AGCTTTGCAGTGGGGAAGAGATAA
DNA 2: TCGATTATCTCTTCCCCACTGCAA
B2: rTPO III (dsDNA)
DNA 1: AGCTGATAATCAGAAAGTCAGCAGAATACT
DNA 2: TCGAAGTATTCTGCTGACTTTCTGATTATC
B3: rTPO IV (dsDNA)
DNA 1: AGCTATACTGTGGGATGTACCATA
DNA 2: TCGATATGGTACATCCCACAGTAT
B4: rTPO V (dsDNA)
DNA 1: AGCTGTGGGATGTACCATAAATACCCAGG
DNA 2: TCGACCTGGGTATTTATGGTACATCCCAC
B5: rTPO VI (dsDNA)
DNA 1: AGCTCAGGCCTCTCCTCAGGTGGGTCCTCCCAAGT
DNA 2: TCGAACTTGGGAGGACCCACCTGAGGAGAGGCCTG
B6: rTPO III mut1 (dsDNA)
DNA 1: AGCTGATAATCAGAAAGTCAGCAGTTCTAG
DNA 2: TCGACTAGAACTGCTGACTTTCTGATTATC
B7: rTPO III mut2 (dsDNA)
DNA 1: AGCTGATAATCAGAAAGTCGTATTAATACT
DNA 2: TCGAAGTATTAATACGACTTTCTGATTATC
B8: rTPO III mut3 (dsDNA)
DNA 1: AGCTGATAATCAGATTCGAAGCAGAATACT
DNA 2: TCGAAGTATTCTGCTTCGAATCTGATTATC
B9: rTPO III mut4 (dsDNA)
DNA 1: AGCTGATAAGATTCAAGTCAGCAGAATACT
DNA 2: TCGAAGTATTCTGCTGACTTGAATCTTATC
B10: rTPO III mut5 (dsDNA)
DNA 1: AGCTTCGTTTCAGAAAGTCAGCAGAATACT
DNA 2: TCGAAGTATTCTGCTGACTTTCTGAAACGA
B11: rTPO VI mut1 (dsDNA)
DNA 1: AGCTCAGGCCTCTCCTCAGGTGGGTCCTCATGGCT
DNA 2: TCGAAGCCATGAGGACCCACCTGAGGAGAGGCCTG
B12: rTPO VI mut2 (dsDNA)
DNA 1: AGCTCAGGCCTCTCCTCAGGTGGGGTTGACCAAGT
DNA 2: TCGAACTTGGTCAACCCCACCTGAGGAGAGGCCTG
B13: rTPO VI mut3 (dsDNA)
DNA 1: AGCTCAGGCCTCTCCTCAGACTAATCCTCCCAAGT
DNA 2: TCGAACTTGGGAGGATTAGTCTGAGGAGAGGCCTG
B14: rTPO VI mut4 (dsDNA)
DNA 1: AGCTCAGGCCTCTCAGATAGTGGGTCCTCCCAAGT
DNA 2: TCGAACTTGGGAGGACCCACTATCTGAGAGGCCTG
B15: rTPO VI mut5 (dsDNA)
DNA 1: AGCTCAGGCGGAAACTCAGGTGGGTCCTCCCAAGT
DNA 2: TCGAACTTGGGAGGACCCACCTGAGTTTCCGCCTG
B16: rTPO VI mut6 (dsDNA)
DNA 1: AGCTTGTAACTCTCCTCAGGTGGGTCCTCCCAAGT
DNA 2: TCGAACTTGGGAGGACCCACCTGAGGAGAGTTACA
B17: rTPO I (dsDNA)
DNA 1: GATCTCTGGGGTTGCAGTGGGGAAGA
DNA 2: TCGATCTTCCCCACTGCAACCCCAGA
B18: rTPO IVmut (dsDNA)
DNA 1: AGCTATACTGTGTTACTTACCATA
DNA 2: TCGATATGGTAAGTAACACAGTAT

Each binder was assayed against T1, nuclear SREBP-2 (nSREBP-2) (assay: EMSA; EMSA with DIG-labeled annealed oligonucleotides (Roche DIG Gel Shift Kit, 2nd Generation) and TNT T7 in vitro-translated proteins; buffer, salt, pH and temperature not stated (ref 19)). Conditions: protein: ivt; chain copies: 2; label: DIG end-label; 5' overhangs 4 nt (AGCT / TCGA).
B1: no binding.
B2: binds.
B3: no binding.
B4: no binding.
B5: binds.
B6: binds.
B7: no binding.
B8: no binding.
B9: binds.
B10: binds.
B11: binds.
B12: binds.
B13: binds.
B14: no binding.
B15: binds.
B16: binds.

Same assay, conditions: protein: ivt; chain copies: 2; label: DIG end-label; 5' overhangs 4 nt (GATC / TCGA)
B17: no binding.

These binders were tested against T2, nuclear SREBP-1c (nSREBP-1c) in the same assay as above. Conditions: protein: ivt; chain copies: 2; label: DIG end-label; 5' overhangs 4 nt (AGCT / TCGA).
B1: no binding.
B2: binds.
B3: binds.
B4: no binding.
B5: binds.
B18: no binding.
B6: binds.
B7: no binding.
B8: no binding.
B9: binds.
B10: binds.
B11: binds.
B12: binds.
B13: binds.
B14: no binding.
B15: binds.
B16: binds.

Same assay, conditions: protein: ivt; chain copies: 2; label: DIG end-label; 5' overhangs 4 nt (GATC / TCGA)
B17: no binding.

Source: article PMC3953333, “Sterol Regulatory Element-Binding Proteins Are Regulators of the Rat Thyroid Peroxidase Gene in Thyroid Cells”
